Laboratory results taken from US6072039, “Hybrid polypeptide comparing a biotinylated avidin binding polypeptide fused to a polypeptide of interest” (Rohm and Haas Company, dated 2000).

Assays:
[1] = biological target: T1, avidin monomer affinity resin (Gallus gallus (Chicken), UniProt P02701); test: avidin monomer affinity column, formic acid cleavage mixture; by Procedure XI the polypeptide of interest is not retained and is collected in the column flowthrough
Method: (§1) The crude extract is applied to a 4 mm×5 cm column packed with avidin monomer affinity resin (U.S. Ser. No. 414,785) on a LKB HPLC system equipped with two Model 2150 pumps, Model 2152 controller, and a Model 2140 spectral detector. Sample absorbance is monitored at 280 nm. The crude extract is applied in 100 mM potassium phosphate buffer, pH 6.8 to 7.2 (or other appropriate buffer at a pH of 4.0 to 11.0) at a flow rate of 0.1 ml/min to a column equilibrated with the same buffer. After the sample is loaded, the column is washed with phosphate buffer at a flow rate of 1 ml/min until absorbance returned to the baseline absorbance, and all nonbound material is washed from the resin. The column is then equilibrated with water, followed by application of 5 ml of 2M NaCl. The column is reequilibrated with water. This same NaCl-water wash procedure is repeated four to five times. The sample is eluted using acetic acid or biotin, as detailed in Procedure IX.
Procedure XI. Separation of the Polypeptide of Interest from the Polypeptide for Attachment The dried polypeptide mixture is resuspended in avidin monomer column loading buffer, 100 mM phosphate buffer pH 6.8–7.2, or other appropriate buffer at a pH of between 4.0 and 11.0. Highly pure polypeptide of interest is obtained by passing the cleaved polypeptide mixture over the avidin resin using the procedure described above. […]

[2] = biological target: T1, avidin monomer affinity resin; test: avidin monomer affinity column, cyanogen bromide cleavage mixture; by Procedure XI the polypeptide of interest is not retained and is collected in the column flowthrough
Method: as §1
The hybrid polypeptide is dissolved in 70% (v/v) aqueous formic acid at 23° C. A 50 molar excess of cyanogen bromide is added in a small volume of 70% formic acid, with stirring. The mixture is incubated in the dark under nitrogen at 20–25° C. for 16 to 24 hours. The mixture is then diluted with 10 volumes of water and freeze-dried. Highly pure polypeptide of interest is obtained by Procedure VIII.
Procedure XI. […]

PMYGGFLTSEKSQTPLVTLFKNAIIKNAYKKGE [β-endorphin cleaved from the 1.3S:β-endorphin hybrid by formic acid (Example 2)]
binding result [1]: no binding

YGGFLTSEKSQTPLVTLFKNAIIKNAYKKGE [β-endorphin cleaved from the hybrid polypeptide by cyanogen bromide (Examples 3 and 6)]
binding result [2]: no binding
